Ten proteins from article PMC3596305, “Escherichia coli NemA Is an Efficient Chromate Reductase That Can Be Biologically Immobilized to Provide a Cell Free System for Remediation of Hexavalent Chromium” (PLoS ONE, 2013) can be followed below.

To fix the notation:
B1: Frp_Vh1 (Vibrio harveyi) (protein)
chain: MNNTIETILAHRSIRKFTAVPITDEQRQTIIQAGLAASSSSMLQVVSIVRVTDSEKRNELAQFAGNQAYVESAAEFLVFCIDYQRHATINPDVQADFTELTLIGAVDSGIMAQNCLLAAESMGLGGVYIGGLRNSAAQVDELLGLPENSAVLFGMCLGHPDQNPEVKPRLPAHVVVHENQYQELNLDDIQSYDQTMQAYYASRTSNQKLSTWSQEVTGKLAGESRPHILPYLNSKGLAKR
B2: NfsB_Kp (Klebsiella pneumoniae subsp. pneumoniae MGH 78578) (protein)
chain: MDIVSVALKRYSTKAFDATKKLTAGEAEQLKTLLQYSPSSTNSQPWHFIVASTDEGKARVAKAASGTYVFNERKILDASHVVVFCAKTAMDDAWLQRVVDQEEADGRFATPDAKAANHKGRTFFADMHRKELKDDDQWMAKQVYLNVGNFLLGVAAMGLDAVPIEGVDFAILDEEFDLKAQGYTSLVVVPVGHHSAEDFNATLPKSRLPQSTTITEI
B3: NfsA_Kp (Klebsiella pneumoniae) (protein)
chain: MTPTIELLRSHRSIRHFTDAPVSDEQRAEIIASAQAASTSSFLQCTSIIRITDPALRERLVPLTGGQQHVAQAAEFWVFCADFNRHLQICPQAQLGLAEQLLIGVVDTALLAQNALTAAESLGLGGVYIGGLRNSIEAVTELLELPQHVLPLFGLCLGWPADNPDIKPRMPAAMLVHENRYQPLDNALLAEYDEQLAHYYLSRGSNARRDTWSDHIRRTIVKESRPFILDYLHKQGWATR
B4: YcnD_Bs (Bacillus subtilis subsp. subtilis str. 168) (protein)
chain: MNEVIKSLTDHRSIRSYTDEPVAQEQLDQIIEAVQSAPSSINGQQVTVITVQDKERKKKISELAGGQPWIDQAPVFLLFCADFNRAKIALEDLHDFKMEITNGLESVLVGAVDAGIALGTATAAAESLGLGTVPIGAVRGNPQELIELLELPKYVFPLSGLVIGHPADRSAKKPRLPQEAVNHQETYLNQDELTSHIQAYDEQMSEYMNKRTNGKETRNWSQSIASYYERLYYPHIREMLEKQGFKVEK
B5: ChrR_Pa (Pseudomonas aeruginosa PAO1) (protein)
chain: MSDDIKVLGISGSLRSGSYNSAALQEAIGLVPPGMSIELADISGIPLYNEDVYALGFPPAVERFREQIRAADALLFATPEYNYSMAGVLKNAIDWASRPPEQPFSGKPAAILGASAGRFGTARAQYHLRQTLVFLDVHPLNKPEVMISSAQNAFDAQGRLLDDKARELIQQQLQALQLWVRRLRG
B6: NfsB_Vv (Vibrio vulnificus YJ016) (protein)
chain: MTIVQAAQSRYSTKAFDASRKLPEEKVAAVKELIRMSASSVNSQPWHFIVASSEEGKARIAKATQGGFAFNERKILDASHVVVFCAKTAIDEAYLLDLLESEDKDGRFADVEAKNGMHAGRSFFVNMHRFDLKDAHHWMEKQVYLNVGTLLLGASAMEIDAVPIEGFDAKVLDEEFGLREKGFTSVVIVPLGYHSEDDFNAKLPKSRWSAETVFTEI
B7: YdgI_Bs (Bacillus subtilis subsp. subtilis str. 168) (protein)
chain: MIKTNDFMEIMKGRRSIRNYDPAVKISKEEMTEILEEATTAPSSVNAQPWRFLVIDSPEGKEKLAPLASFNQTQVTTSSAVIAVFADMNNADYLEEIYSKAVELGYMPQEVKDRQIAALTAHFEKLPAQVNRETILIDGGLVSMQLMLTARAHGYDTNPIGGYDKENIAETFGLDKERYVPVMLLSIGKAADEGYASYRLPIDTIAEWK
B8: MdaB_Ec (Escherichia coli K-12) (protein)
chain: SNILIINGAKKFAHSNGQLNDTLTEVADGTLRDLGHDVRIVRADSDYDVKAEVQNFLWADVVIWQMPGWWMGAPWTVKKYIDDVFTEGHGTLYASDGRTRKDPSKKYGSGGLVQGKKYMLSLTWNAPMEAFTEKDQFFHGVGVDGVYLPFHKANQFLGMEPLPTFIANDVIKMPDVPRYTEEYRKHLVEIFG
B9: NemA_Ec (Escherichia coli K-12) (protein)
chain: MSSEKLYSPLKVGAITAANRIFMAPLTRLRSIEPGDIPTPLMAEYYRQRASAGLIISEATQISAQAKGYAGAPGIHSPEQIAAWKKITAGVHAENGHMAVQLWHTGRISHASLQPGGQAPVAPSALSAGTRTSLRDENGQAIRVETSMPRALELEEIPGIVNDFRQAIANAREAGFDLVELHSAHGYLLHQFLSPSSNHRTDQYGGSVENRARLVLEVVDAGIEEWGADRIGIRVSPIGTFQNTDNGPNEEADALYLIEQLGKRGIAYLHMSEPDWAGGEPYTDAFREKVRARFHGPIIGAGAYTVEKAETLIGKGLIDAVAFGRDWIANPDLVARLQRKAELNPQRAESFYGGGAEGYTDYPTL
notes: free enzyme (not PhaC fusion)
B10: AzoR_Ec (Escherichia coli K-12) (protein)
chain: SKVLVLKSSILAGYSQSNQLSDYFVEQWREKHSADEITVRDLAANPIPVLDGELVGALRPSDAPLTPRQQEALALSDELIAELKAHDVIVIAAPMYNFNISTQLKNYFDLVARAGVTFRYTENGPEGLVTGKKAIVITSRGGIHKDGPTDLVTPYLSTFLGFIGITDVKFVFAEGIAYGPEMAAKAQSDAKAAIDSIVSA

Substrate in one data set: [O]=[Cr](=[O])([OH])[OH]
Kind of data set: purified protein. Conditions: 1 mM NADH, 50 mM Tris-Cl pH 7.0, 22°C.
With B1, the Km came out at 3.8 ± 0.5 µM, the kcat turned out to be 0.32 s⁻¹ and the kcat/Km stood at 84000 M⁻¹ s⁻¹.

Consider B2, for which the Km was found to be 47 ± 4 µM, the kcat came out at 0.37 s⁻¹ and the kcat/Km worked out at 7800 M⁻¹ s⁻¹.

For the protein B3, the Km was 1.7 ± 1.0 µM, the kcat was determined as 0.12 s⁻¹ and the specificity constant (kcat/Km) was found to be 69000 M⁻¹ s⁻¹.

For the protein B4, the Km was 73 ± 2 µM, the catalytic constant (kcat) came out at 0.37 s⁻¹ and the kcat/Km was determined as 5000 M⁻¹ s⁻¹.

For B5, the Km is 1300 ± 100 µM, the kcat stood at 1.5 s⁻¹ and the kcat/Km came to 1100 M⁻¹ s⁻¹.

Take B6: the Km was found to be 2200 µM, the kcat turned out to be 0.8 s⁻¹ and the specificity constant (kcat/Km) was 360 M⁻¹ s⁻¹.

Turning to B7, the Km came out at 63 ± 1 µM, the catalytic constant (kcat) came out at 0.48 s⁻¹ and the kcat/Km was 7700 M⁻¹ s⁻¹.

For B8, the Km amounted to 170 ± 120 µM, the kcat is 0.2 s⁻¹ and the kcat/Km is 1100 M⁻¹ s⁻¹.

Still in this data set, the particulars now being: 1 mM NADH, 50 mM Tris-Cl pH 7.0, 22°C, free enzyme.
For the protein B9, the Km was 16 ± 9 µM, the kcat is 1 s⁻¹ and the kcat/Km was 110000 M⁻¹ s⁻¹.

Substrate in a further data set: [O]=[Cr](=[O])([OH])[OH]
Kind of data set: cells, lysate or membranes named. Conditions: 1 mM NADH, 50 mM Tris-Cl pH 7.0, 22°C, no lysate or lawsone added.
For B10, the Km came to 380 µM, the kcat stood at 0.03 s⁻¹ and the kcat/Km came out at 87 M⁻¹ s⁻¹.

Substrate in another data set: NC(=O)C1=CN([C@@H]2O[C@H](COP(=O)(O)OP(=O)(O)OC[C@H]3O[C@@H](n4cnc5c(N)ncnc54)[C@H](O)[C@@H]3O)[C@@H](O)[C@H]2O)C=CC1
Kind of data set: diphenylcarbazide Cr(VI) assay, Lineweaver-Burk. The class given is biochemical, Escherichia coli. Conditions: 150 µM Cr(VI), 22°C, pH 7.0, free enzyme, varied: cofactor.
As to B9, the Km was 450 ± 30 µM.
